Laboratory results published in patent publication US20230280350A1 (NORDIC BIOSCIENCE A S, published 2023).
No end group written: not given here. *: point of attachment. Biotin = O=C1N[C@H]2[C@H](CS[C@H]2CCCCC(=O)*)N1

Tests used:
[1] = molecular target: T1, Elongated peptide PMKTMKGPFGG; experiment: competitive ELISA, peptide against coated Biotin-K-PMKTMKGPFG
T1 construct: Selection peptide with one extra glycine at the C-terminus
T1 peptide: PMKTMKGPFGG
Description: (§1) The PRO-C16 amino acid sequence 1595′-[…] (SEQ ID NO: 1) located at the C-terminal was used to generate an antibody specific for the C-terminal of col-16. It was additionally used to design the selection peptide ([…]; SEQ ID NO: 1) (Table 1). The sequence was BLASTed for homology to other human proteins and species using the NPS@: network protein sequence analysis with the Uniprot/Swiss-Prot database (20). The amino acid sequence is unique to human col-16. A biotinylated peptide (Biotin-K-[…]) was used to coat the streptavidin-coated plates applied in the ELISA. An elongated peptide ([…]; SEQ ID NO: 2), a truncated peptide ([…]; SEQ ID NO: 3), a nonsense peptide ([…]; SEQ ID NO: 5) and a nonsense biotinylated peptide (Biotin-[…]; SEQ ID NO: 6) were included to test the specificity of the antibody.
(§2) The PRO-C16 competitive ELISA procedure was as follows; a 96-well streptavidin-coated microtiter plate was coated with 100 µl of biotinylated peptide (Biotin-K-[…]; SEQ ID NO: 4) dissolved in assay buffer (50 mM PBS-BTB, 4 g/l NaCl, pH 7.4) (final concentration of […]). The plate was incubated for 30 minutes at 20° C. with shaking (300 rpm) and then washed five times in washing buffer (20 mM TRIS, 50 mM NaCl, pH 7.2). A volume of 20 µl of sample/control/selection peptide ([…]; SEQ ID NO: 1) was added followed by immediately addition of 100 µl of monoclonal antibody diluted in assay buffer (final concentration of 62.5 ng/ml). The plate was incubated for 1 hour at 20° C. with shaking followed by five washes in washing buffer. Then, 100 µl of goat anti-mouse HRP-conjugated IgG antibody (Thermo Scientific, Waltham, MA, USA; cat. #31437) diluted in assay buffer (final concentration of 130 ng/ml) was added to each well. […] To stop the reaction of TMB, 100 µl of 1% H₂SO₄ was added and the plate was analyzed in a VersaMax ELISA microplate reader at 450 nm with 650 nm as reference. A standard curve was plotted using a 4-parametric mathematical fit model and data were analyzed using the Softmax Pro v. […]

[2] = molecular target: T2, Truncated peptide PMKTMKGPF; experiment: competitive ELISA, peptide against coated Biotin-K-…
T2 construct: Selection peptide without its C-terminal glycine
T2 peptide: PMKTMKGPF
Description: as §1, §2

[3] = molecular target: T3, Nonsense peptide VPKDLPPDTT (not fully specified); experiment: as above
T3 construct: Control peptide
T3 peptide: VPKDLPPDTT
Description: as §1, §2

[4] = molecular target: T4, Nonsense biotinylated peptide Biotin-VPKDLPPDTT; experiment: ELISA with the nonsense biotinylated peptide on streptavidin plates
T4 construct: Control coating peptide
T4 peptide: Biotin-VPKDLPPDTT

Measured: binding result

B1: monoclonal antibody of the PRO-C16 assay, raised against KLH-CGG-… (antibody, mouse IgG2b, kappa, V domains shown)
VH: EVQLQQSGAELVRSGASVKLSCTASGFNIKDYYIHWVKQRPEQGLEWIGWIDHDNGDTEYDPKFQGKATLTADTSSNTAYLQLSSLTSEDTAVYYCNAKGPRYGYEEDWFAYWGQGTLVTVST
VL: DVLMTQTPLSLPVSLGDQASISCRSSQSIVHNNGNTYLEWFLQKPGQSPKLLIYKVSNRFSGVPDRFSGSGSGTDFTLRISRVEADDLGVYYCFQGSHVPRTFGGGTKLEIKR
notes: also called PRO-C16 antibody; C16-C
no binding: all assays above
